Assay results published in US20070207955A1, “Novel polypeptide and process for producing the same, and collagenase inhibitor” (priority 2006, published 2007).

Tests used:
[1] = target: polypeptide of Comparative Example 1 (polycondensate of H-(Pro-Hyp-Gly)10-OH) (Artificial Sequence)
[2] = target: polypeptide of Example 3 (co-polycondensate of H-(Pro-Hyp-Gly)10-OH and H-(Pro-Hyp-Gly)4-Pro-Gln-Gly-Ile-Ala-Gly-(Pro-Hyp-Gly)4-OH, equimolar) (Artificial Sequence)
[3] = target: polypeptide of Example 2 (polycondensate of H-(Pro-Hyp-Gly)4-Pro-Gln-Gly-Ile-Ala-Gly-(Pro-Hyp-Gly)4-OH) (Artificial Sequence)
[4] = target: collagenase (MMP-1, human rheumatoid synovial fibroblast) (human) (UniProt P03956)
[5] = target: T1, collagenase (MMP-1, human rheumatoid synovial fibroblast) (Homo sapiens, UniProt P03956); experiment: Test Example 2: collagenase inhibition, peak area of Dnp-Pro-Leu-Gly from decomposition of Dnp-Pro-Leu-Gly-Ile-Ala-Gly-Arg-NH2; assay type: biochemical; conditions: 0.025 mg polypeptide, 200 ng collagenase, 37° C. for one hour
T1 construct: collagenase (MMP-1, human rheumatoid synovial fibroblast); endogenous in cells; host or cells: human rheumatoid synovial fibroblast
T1 sequence (P03956 100-469): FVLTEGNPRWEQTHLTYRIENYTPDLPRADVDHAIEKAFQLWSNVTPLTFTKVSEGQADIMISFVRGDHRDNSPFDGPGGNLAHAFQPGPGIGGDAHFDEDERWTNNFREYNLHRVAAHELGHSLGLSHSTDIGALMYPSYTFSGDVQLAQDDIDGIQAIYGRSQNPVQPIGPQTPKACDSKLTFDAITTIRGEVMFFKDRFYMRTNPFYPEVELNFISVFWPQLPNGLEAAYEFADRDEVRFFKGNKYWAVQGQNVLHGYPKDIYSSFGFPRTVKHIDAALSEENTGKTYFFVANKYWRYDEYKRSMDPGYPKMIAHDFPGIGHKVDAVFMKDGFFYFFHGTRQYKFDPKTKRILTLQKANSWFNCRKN
Description: Each of the polypeptides (0.025 mg) obtained in the Examples 1 to 6 and Comparative Examples 1 and 2 was dissolved in 0.05 mL of a 50 mM Tris/HCl buffer (pH=7.5) containing 50 mM NaCl and 10 mM CaCl2. Further, to each of the solutions was added 200 ng of collagenase (MMP-1, human rheumatoid synovial fibroblast) which was dissolved in 0.05 mL of a 50 mM Tris/HCl buffer (pH=7.5) containing 50 mM NaCl and 10 mM CaCl2, and was added 0.01 mL of 1 mM DMSO solution of Dnp-Pro-Leu-Gly-Ile-Ala-Gly-Arg-NH2 (manufactured by Peptide Institute, Inc., Dnp represents 2,4-dinitrophenyl group). The resulting mixture was allowed to stand at 37° C. for one hour. Then, 0.2 mL of acetonitrile was added to the mixture, and the resultant was centrifuged at 10,000 rpm for 10 minutes.
Incidentally, as a control, a peak area of the peptide Dnp-Pro-Leu-Gly without addition of any polypeptide was measured. The peak area of the control was considered as 100, and the peak area detected by addition of each of the polypeptides obtained in Examples and Comparative Examples was calculated as a relative value to the control.

Row | Substance | relative value of the peak area of Dnp-Pro-Leu-Gly (control without polypeptide = 100) (relative to control = 100) [4] | other results
1 | collagenase (MMP-1, human rheumatoid synovial fibroblast) (from UniProt P03956) (enzyme) | – | change in the molecular weight peak by gel-permeation chromatography after 24 hours at 37 C with collagenase (molecular weight) [1]: 540000; change in the molecular weight peak by gel-permeation chromatography after 24 hours at 37 C with collagenase (molecular weight) [2]: 400000; change in the molecular weight peak by gel-permeation chromatography after 24 hours at 37 C with collagenase (molecular weight) [3]: 540000
2 | polypeptide of Example 5, H-(Pro-Hyp-Gly)4-Pro-Leu-Gly-Ile-Ala-Gly-(Pro-Hyp-Gly)4-OH | 4 | –
3 | polypeptide of Example 1, H-(Pro-Hyp-Gly)4-Pro-Gln-Gly-Ile-Ala-Gly-(Pro-Hyp-Gly)4-OH | 5 | –
4 | peptide of Comparative Example 2, H-(Pro-Hyp-Gly)10-OH | 96 | –
5 | polypeptide of Example 2 (polycondensate of H-(Pro-Hyp-Gly)4-Pro-Gln-Gly-Ile-Ala-Gly-(Pro-Hyp-Gly)4-OH) | 3 | –
6 | H-(Pro-Hyp-Gly)10-OH [Comparative Example 2] | – | inhibition of the collagenase activity [5]: the inhibition of the collagenase activity was not recognized; relative value of the detected peak area of Dnp-Pro-Leu-Gly (control without polypeptide = 100) ([5]; pH 7.5): 96

Second part, led by results:

Row | relative value of the peak area of Dnp-Pro-Leu-Gly (control without polypeptide = 100) (relative to control = 100) [4] | Substance | other results
7 | 97 | polypeptide of Comparative Example 1 (polycondensate of H-(Pro-Hyp-Gly)10-OH) | –
8 | 2 | polypeptide of Example 6 (polycondensate of H-(Pro-Hyp-Gly)4-Pro-Leu-Gly-Ile-Ala-Gly-(Pro-Hyp-Gly)4-OH) | –
9 | 12 | polypeptide of Example 3 (co-polycondensate of H-(Pro-Hyp-Gly)10-OH and H-(Pro-Hyp-Gly)4-Pro-Gln-Gly-Ile-Ala-Gly-(Pro-Hyp-Gly)4-OH, equimolar) | –
10 | 22 | polypeptide of Example 4 (co-polycondensate of H-(Pro-Hyp-Gly)10-OH and H-(Pro-Hyp-Gly)4-Pro-Gln-Gly-Ile-Ala-Gly-(Pro-Hyp-Gly)4-OH, 0.00081 mmol to 0.00009 mmol) | –
